Laboratory results: article PMC10109501 (PLOS Pathogens, 2023)

Molecular target: SARS-CoV-2 original 2019-CoV Spike, prefusion trimeric ectodomain (2P, GSAS, T4 foldon) (SARS-CoV-2, UniProt P0DTC2 14-1213)
Experiment: BLI
Conditions: both partners purified

B1: cat ACE2-Fc (residues 19-615, mouse IgG2a Fc fusion) (Fc fusion)
chain: STTEELAKTFLEKFNHEAEELSYQSSLASWNYNTNITDENVQKMNEAGAKWSAFYEEQSKLAKTYPLAEIHNTTVKRQLQALQQSGSSVLSADKSQRLNTILNAMSTIYSTGKACNPNNPQECLLLEPGLDDIMENSKDYNERLWAWEGWRAEVGKQLRPLYEEYVALKNEMARANNYEDYGDYWRGDYEEEWTDGYNYSRSQLIKDVEHTFTQIKPLYQHLHAYVRAKLMDTYPSRISPTGCLPAHLLGDMWGRFWTNLYPLTVPFGQKPNIDVTDAMVNQSWDARRIFKEAEKFFVSVGLPNMTQGFWENSMLTEPGDSRKVVCHPTAWDLGKGDFRIKMCTKVTMDDFLTAHHEMGHIQYDMAYAVQPFLLRNGANEGFHEAVGEIMSLSAATPNHLKTIGLLSPGFSEDSETEINFLLKQALTIVGTLPFTYMLEKWRWMVFKGEIPKEQWMQKWWEMKREIVGVVEPVPHDETYCDPASLFHVANDYSFIRYYTRTIYQFQFQEALCRIAKHEGPLHKCDISNSSEAGKKLLQMLTLGKSKPWTLALEHVVGEKKMNVTPLLKYFEPLFTWLKEQNRNSFVGWNTDWRPYAD
  binding result: binds
